Sequences and labels used below:
B1: A334I (protein)
chain: MASSRTGAGAGGRVVVFPFPFQGHFNPVMRLARALHARGLAITVFHSGALDPADYPADYRFVPVTVEADPKLLASEDIAAIVTTLNASCDAPFRARLSALLAAEGRDSVRCVFTDVSWNAVLTASSDLGVPALGMMTASAASLRDYMAYRTLIDKGYLPVKEERKEDPVPELPPYLVKDLLRVDTSDLEEFAELLARTVTAARRASGLIFNTFPLIETDTLAEIHKALSVPVFAVAPLNKLVPTATASLHGVVQADRGCLQWLDTQQPGSVLYVSFGSMAAMDPHEFVELAWGLADSKRPFVWVVRPNLIRGFESGALPDGVEDEVRGRGIVVIWAPQEEVLAHPAVGGFLTHNGWNSTVEAISEGVPMVCCPRHGDQFGNMRYVCDVWKVGTELVGEQLERGQVKAAIDRLFGTKEGEEIKERMKEFKIAAAKGIGIGVDVDETASPRTDLTDLVDLIKSF
modifications: Zea mays
B2: C372L (protein)
chain: B1 chain with I334A, C372L
modifications: Zea mays
B3: A334P (protein)
chain: B1 chain with I334P
modifications: Zea mays
B4: H24A (protein)
chain: B1 chain with H24A, I334A
modifications: Zea mays
B5: S364L: additional mutation in SEQ ID No: 17 (protein)
chain: B1 chain with S117V, M279F, I334K, S364L
modifications: Mutated Zea mays Bx9 protein sequence
B6: S75K: additional mutation in SEQ ID No: 17 (protein)
chain: B1 chain with S75K, S117V, M279F, I334K
modifications: Mutated Zea mays Bx9 protein sequence
B7: R424P: additional mutation in SEQ ID No: 17 (protein)
chain: B1 chain with S117V, M279F, I334K, R424P
modifications: Mutated Zea mays Bx9 protein sequence
B8: A433V: additional mutation in SEQ ID No: 17 (protein)
chain: B1 chain with S117V, M279F, I334K, A433V
modifications: Mutated Zea mays Bx9 protein sequence
B9: A236G: additional mutation in SEQ ID No: 17 (protein)
chain: B1 chain with S117V, A236G, M279F, I334K
modifications: Mutated Zea mays Bx9 protein sequence
B10: V360M: additional mutation in SEQ ID No: 17 (protein)
chain: B1 chain with S117V, M279F, I334K, V360M
modifications: Mutated Zea mays Bx9 protein sequence
B11: M425F: additional mutation in SEQ ID No: 17 (protein)
chain: B1 chain with S117V, M279F, I334K, M425F
modifications: Mutated Zea mays Bx9 protein sequence
B12: R449C: additional mutation in SEQ ID No: 17 (protein)
chain: B1 chain with S117V, M279F, I334K, R449C
modifications: Mutated Zea mays Bx9 protein sequence
B13: G366H: additional mutation in SEQ ID No: 17 (protein)
chain: B1 chain with S117V, M279F, I334K, G366H
modifications: Mutated Zea mays Bx9 protein sequence
B14: H375Y: additional mutation in SEQ ID No: 17 (protein)
chain: B1 chain with S117V, M279F, I334K, H375Y
modifications: Mutated Zea mays Bx9 protein sequence
B15: G418Y: additional mutation in SEQ ID No: 17 (protein)
chain: B1 chain with S117V, M279F, I334K, G418Y
modifications: Mutated Zea mays Bx9 protein sequence

The record followed here is patent publication US20200270588A1, “GLUCOSYL TRANSFERASE POLYPEPTIDES AND METHODS OF USE” (Syngenta Participations AG, priority 2017, published 2020).

Where a chain is given by its changes, count along the chain named. In names and notes the source's numbering stands.

One assay in a line: UDP luminescence plate assay of E. coli extracts, mutants of SEQ ID No: 1, 2 mM metribuzin. It counts as biochemical, Zea mays. The settings on record: 2 mM metribuzin vs DMSO control, same mutant. In short, it runs like this: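 Extracts of E. coli BL21 DE3 expressing C-terminally His-tagged SEQ ID NO:1 variants incubated with 2 mM metribuzin; UDP formed read by UDP-Glo luminescence against a UDP standard curve, with optional 95 C stop. Mutants ranked by metribuzin/DMSO signal ratio and signal increase over wild-type bx9.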
On to B1, for which the “RATIO of the metribuzin signal to the DMSO signal” value (“RATIO of the metribuzin signal” for short) was 0.89.

Consider B2, for which the “RATIO of the metribuzin signal” value amounted to 1.06.

Consider B3, for which the “RATIO of the metribuzin signal” value stood at 0.88.

Still in this assay, the particulars now being: 2 mM metribuzin; relative to bx9 w/t.
B1: the “SIGNAL: metribuzin signal of mutant divided by the signal of w/t bx9” value is 1.05.

Take B2: the “SIGNAL: metribuzin signal of mutant divided by the signal of w/t bx9” value is given as 1.22.

With B3, the “SIGNAL: metribuzin signal of mutant divided by the signal of w/t bx9” value was 1.24.

Staying with this assay, now noted: mutants of SEQ ID No: 1; DMSO in place of metribuzin (background UDP-glucose hydrolysis).
B1: the “luminescence signal in the DMSO control” value is given as 3.29E+05.

For the molecule B2, the “luminescence signal in the DMSO control” value worked out at 3.22E+05.

For B4, the “luminescence signal in the DMSO control” value is recorded as 2.60E+05.

For the molecule B3, the “luminescence signal in the DMSO control” value is given as 3.97E+05.

Staying with this assay, now noted: mutants of SEQ ID No: 1 in E. coli extracts; 2 mM metribuzin; UDP luminescence.
For B1, the “luminescence signal observed with 2 mM metribuzin” value (“luminescence signal observed” for short) came out at 2.94E+05.

As for B2, the “luminescence signal observed” value was 3.41E+05.

As for B4, the “luminescence signal observed” value is recorded as 2.39E+05.

With B3, the “luminescence signal observed” value is reported as 3.48E+05.

Another assay is described as follows: UDP luminescence plate assay of E. coli extracts, mutants within SEQ ID No: 17, 2 mM metribuzin. To be noted: 2 mM metribuzin vs DMSO control, same mutant. It counts as biochemical, Zea mays. The procedure:
Activities observed with metribuzin were generally lower in magnitude than seen with herbicide V in the previous examples. For example, in one plate assay run with 2 mM metribuzin using 5 ul of diluted extract of plate-grown BL21DE3 cells expressing w/t bx9 and assayed for 40 minutes (as described in Example 2) the UDP-Glo luminescence signal was ˜3.4 E6 as compared with ˜2.3E6 in the DMSO control and ˜1.7E6 in the H24A null mutant control. […] It was therefore important to assess potential improvements in the metribuzin activity of the various mutants relative to the wild type bx9 enzyme based not only on the H24A null activity control but also based upon controls with DMSO in place of metribuzin acceptor substrate. In some plate assays (using more dilute extracts) the metribuzin signals from the w/t enzyme was the same or barely greater than the DMSO control. Additionally, some mutations gave an increase in the ‘background’ UDP-glucose hydrolysis activity with just DMSO present that was the same or similar to the magnitude of the increase in signal seen with metribuzin. In these instances it is therefore uncertain from just this UDP-Glo assay method whether the specific metribuzin signal (glucosylation of metribuzin) is improved or not i.e. the signal seen with metribuzin may or may not all or to a large part be attributable to increased background hydrolysis). […] Thus the ratio of the metribuzin to DMSO signal as well as the increase in signal relative to the w/t bx9 is used to help distinguish those mutations most likely to offer the highest activity to metribuzin. A follow up assay monitored by, for example, LC MS is one method to distinguish these cases more quantitatively. The tables below summarise the results from two different sets of luminescence plate assays to detect single mutations giving improvements in the magnitude of the signal with metribuzin relative to w/t bx9 and/or the apparent specificity for metribuzin as measured by the deviation of the ratio of metribuzin to DMSO control activity from the bx9 w/t value of around unity.
A further separate screen was carried out to explore a library of additional mutations at various positions within the context of SEQ ID No: 17 for improved metribuzin activity. These were assayed, assessed and scored as above. […] These were S75K (2.5)(1.25), A236G (4.0)(1.15), A433V (3.3)(9.0) and R449C (1.8)(1.2).
A yet further and more comprehensive screen was carried out to explore saturation mutagenesis at all remaining amino acid positions within the context of SEQ ID No:17 for improved metribuzin activity. Again these were assayed, assessed and scored as above and the results of (out of the thousands screened) of the subset that were of interest are summarized in Table 16.
Consider B5, for which the “RATIO of the metribuzin signal” value was 1.19.

The same assay, now with this note: 2 mM metribuzin; additional mutation in SEQ ID No: 17.
Turning to B6, the “metribuzin signal relative to the SEQ ID No:17 control (first parentheses)” value stood at 2.5 and the “ratio of metribuzin to DMSO signal (second parentheses)” value (shortened to “ratio of metribuzin to DMSO signal”) came out at 1.25.

As for B7, the “metribuzin signal relative to the SEQ ID No:17 control (first parentheses)” value was determined as 2.5 and the “ratio of metribuzin to DMSO signal” value was 1.14.

Turning to B8, the “metribuzin signal relative to the SEQ ID No:17 control (first parentheses)” value is reported as 3.3 and the “ratio of metribuzin to DMSO signal” value is listed as 9.0.

B9: the “metribuzin signal relative to the SEQ ID No:17 control (first parentheses)” value is 4.0 and the “ratio of metribuzin to DMSO signal” value is given as 1.15.

Turning to B10, the “metribuzin signal relative to the SEQ ID No:17 control (first parentheses)” value amounted to 2.0 and the “ratio of metribuzin to DMSO signal” value worked out at 1.28.

On to B11, for which the “metribuzin signal relative to the SEQ ID No:17 control (first parentheses)” value is listed as 4.1 and the “ratio of metribuzin to DMSO signal” value was determined as 1.96.

B12: the “metribuzin signal relative to the SEQ ID No:17 control (first parentheses)” value worked out at 1.8 and the “ratio of metribuzin to DMSO signal” value amounted to 1.2.

Consider B5, for which the “metribuzin signal relative to the SEQ ID No:17 control (first parentheses)” value came to 3.3 and the “ratio of metribuzin to DMSO signal” value is recorded as 1.20.

As to B13, the “metribuzin signal relative to the SEQ ID No:17 control (first parentheses)” value is given as 3.4 and the “ratio of metribuzin to DMSO signal” value is on record as 1.34.

Consider B14, for which the “metribuzin signal relative to the SEQ ID No:17 control (first parentheses)” value worked out at 3.8 and the “ratio of metribuzin to DMSO signal” value was found to be 2.33.

Regarding B15, the “metribuzin signal relative to the SEQ ID No:17 control (first parentheses)” value is recorded as 3.1 and the “ratio of metribuzin to DMSO signal” value stood at 1.47.

The same assay, now with this note: 2 mM metribuzin; relative to SEQ ID No: 17 control.
As to B7, the “SIGNAL: metribuzin signal of mutant divided by the signal of the SEQ ID No. 17 control” value is listed as 2.51.

Take B10: the “SIGNAL: metribuzin signal of mutant divided by the signal of the SEQ ID No. 17 control” value came out at 2.02.

For the molecule B11, the “SIGNAL: metribuzin signal of mutant divided by the signal of the SEQ ID No. 17 control” value came out at 4.13.

Turning to B5, the “SIGNAL: metribuzin signal of mutant divided by the signal of the SEQ ID No. 17 control” value is listed as 3.29.

With B13, the “SIGNAL: metribuzin signal of mutant divided by the signal of the SEQ ID No. 17 control” value is 3.38.

In the case of B14, the “SIGNAL: metribuzin signal of mutant divided by the signal of the SEQ ID No. 17 control” value came out at 3.80.

For B15, the “SIGNAL: metribuzin signal of mutant divided by the signal of the SEQ ID No. 17 control” value is 3.11.

Still in this assay, the particulars now being: additional mutations within SEQ ID No: 17; DMSO in place of metribuzin.
On to B7, for which the “luminescence signal in the DMSO control” value was determined as 4.02E+06.

Consider B10, for which the “luminescence signal in the DMSO control” value turned out to be 2.88E+06.

For B11, the “luminescence signal in the DMSO control” value is reported as 3.84E+06.

For the molecule B5, the “luminescence signal in the DMSO control” value was 5.04E+06.

B13: the “luminescence signal in the DMSO control” value came to 4.62E+06.

Turning to B14, the “luminescence signal in the DMSO control” value was 2.97E+06.

B15: the “luminescence signal in the DMSO control” value is 3.86E+06.

Staying with this assay, now noted: additional mutations within SEQ ID No: 17; control = SEQ ID No: 17; 2 mM metribuzin.
Turning to B7, the “luminescence signal observed” value came out at 4.58E+06.

Consider B10, for which the “luminescence signal observed” value was 3.68E+06.

Consider B11, for which the “luminescence signal observed” value is 7.53E+06.

For B5, the “luminescence signal observed” value is on record as 6.00E+06.

Regarding B13, the “luminescence signal observed” value is recorded as 6.17E+06.

B14: the “luminescence signal observed” value amounted to 6.93E+06.

As to B15, the “luminescence signal observed” value amounted to 5.67E+06.
